The target of experiment [1] is T1, human FcγRIIb receptor protein (R&D Systems) (human, UniProt P31994 46-217).
T1 construct: Bought protein injected over captured antibody in Biacore; also called CD32b
T1 sequence (looked up): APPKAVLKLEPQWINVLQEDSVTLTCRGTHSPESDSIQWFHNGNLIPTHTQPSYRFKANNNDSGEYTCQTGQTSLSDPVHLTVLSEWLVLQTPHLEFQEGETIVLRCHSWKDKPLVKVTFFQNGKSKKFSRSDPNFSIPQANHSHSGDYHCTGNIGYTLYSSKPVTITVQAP
As to the kind of experiment: SPR. For orientation: SPR reads the build-up and loss of mass on a sensor chip optically.

The target of experiment [2] is T2, human FcγRIIa (131R), His- and GST-tagged (human, UniProt P12318 34-217).
T2 construct: Expressed in HEK293T cells, purified by nickel chromatography; also called R131 FcγRIIa; not shown: 6xHis and GST tags of the pTT5 vector
T2 sequence (looked up): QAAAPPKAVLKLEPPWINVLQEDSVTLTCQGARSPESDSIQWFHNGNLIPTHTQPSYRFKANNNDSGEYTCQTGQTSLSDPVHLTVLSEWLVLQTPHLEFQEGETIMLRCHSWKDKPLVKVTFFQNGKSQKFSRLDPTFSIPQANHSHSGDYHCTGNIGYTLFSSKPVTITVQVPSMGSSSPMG
As to the kind of experiment: SPR.

Experiment [3] addresses T3, human FcγRIIIa (158V), His- and GST-tagged (human, UniProt P08637 17-208).
T3 construct: also called V158 FcγRIIIa; VIIIa; not shown: 6xHis and GST tags of the pTT5 vector
As to the kind of experiment: SPR.

The target in experiment [4] is T4, human FcγRI receptor protein (R&D Systems) (human, UniProt P12314 16-288).
T4 construct: also called soluble FcγRI; solFcγRI
As to the kind of experiment: SPR.

The target in experiment [5] is T5, mFcγRIV.
T5 construct: also called mouse FcγRIV; not shown: C-terminal His and GST tags (named only on our card)
T5 chain: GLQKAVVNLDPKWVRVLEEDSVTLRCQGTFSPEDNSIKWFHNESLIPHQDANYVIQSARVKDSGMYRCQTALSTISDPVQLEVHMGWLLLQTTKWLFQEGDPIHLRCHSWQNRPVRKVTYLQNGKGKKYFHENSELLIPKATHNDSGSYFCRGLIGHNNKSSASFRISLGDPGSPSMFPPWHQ
As to the kind of experiment: SPR, off-rate. As for the experimental part: (§1) Variants were screened for receptor affinity using Biacore™ technology, also referred to as Biacore herein, a surface plasmon resonance (SPR) based technology for studying biomolecular interactions in real time. SPR measurements were performed using a Biacore 3000 instrument (Biacore, Piscataway, N.J.). A protein A/G (Pierce Biotechnology) CM5 biosensor chip (Biacore) was generated using a standard primary amine coupling protocol. All measurements were performed using HBS-EP buffer (10 mM HEPES pH 7.4, 0.15 M NaCl, 3 mM EDTA, 0.005% vol/vol surfactant P20, Biacore). Antibodies at 20 nM or 50 nM in HBS-EP buffer were immobilized on the protein A/G surface and FcγRs were injected. After each cycle, the surface was regenerated by injecting glycine buffer (10 mM, pH 1.5). Data were processed by zeroing time and response before the injection of FcγR and by subtracting appropriate nonspecific signals (response of reference channel and injection of running buffer). Kinetic analyses were performed by global fitting of binding data with a 1:1 Langmuir binding model using BIAevaluation software (Biacore).
(§2) Variant antibodies were tested for their affinity to mouse or cynologous monkey FcγRs using Biacore SPR as described above. Specifically, antibodies were first immobilized on a protein A/G chip to high density, and then followed by injections of the extracellular domain of the mouse or cynologous monkey FcγR of interest. Both association and dissociation phases were tracked in real time using the Biacore technology.

For experiment [6], the target named is T6, cynoFcγRIIIa (Macaca fascicularis, UniProt Q8SPW2).
T6 construct: extracellular region, C-terminal His- and GST-tag; also called cynomolgus monkey FcγRIIIa
As to the kind of experiment: SPR.

For experiment [7], the target named is T7, cynoFcγRIIb (Macaca fascicularis, UniProt A0A140HDP4).
T7 construct: extracellular region, C-terminal His- and GST-tag; also called cynomolgus monkey FcγRIIb
T7 sequence (receptor extracellular region): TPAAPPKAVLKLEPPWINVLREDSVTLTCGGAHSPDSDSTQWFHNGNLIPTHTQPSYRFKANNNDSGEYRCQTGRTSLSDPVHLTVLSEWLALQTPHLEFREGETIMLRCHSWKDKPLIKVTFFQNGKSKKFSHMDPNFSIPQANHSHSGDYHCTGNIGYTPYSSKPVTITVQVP
As to the kind of experiment: SPR.

Experiment [8] deals with T8, mFcγRIIb (Mus musculus, UniProt P08101).
T8 construct: extracellular region, C-terminal His- and GST-tag; also called mouse FcγRII
T8 sequence (receptor extracellular region, looked up): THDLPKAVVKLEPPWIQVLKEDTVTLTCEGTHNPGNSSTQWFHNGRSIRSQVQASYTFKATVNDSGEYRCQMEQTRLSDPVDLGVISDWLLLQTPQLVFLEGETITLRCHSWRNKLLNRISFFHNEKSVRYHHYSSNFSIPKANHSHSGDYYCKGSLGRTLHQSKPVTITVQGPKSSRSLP
As to the kind of experiment: SPR.

The target of experiment [9] is T7, cynoFcγRIIb. As to the kind of experiment: SPR, off-rate. As for the experimental part: as §1, §2
For experiment [10], the target named is T8, mFcγRIIb. As to the kind of experiment: SPR, off-rate. Here is the method: as §1, §2
Experiment [11] concerns the target T6, cynoFcγRIIIa. As to the kind of experiment: SPR, off-rate. As for the experimental part:
as §1, §2

Experiment [12] concerns the target T5, mFcγRIV. As to the kind of experiment: SPR.

This note sets out measurements from patent publication US20130315910A1 (Xencor, published 2013).

The term Kd denotes the equilibrium constant for the complex coming apart. A high value points to weaker binding.
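For Fold vs WT IgG1 (off-rate) in this document: fold improvement over WT IgG1 so higher means slower dissociation than WT.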

T6 sequence (Q8SPW2 17-208): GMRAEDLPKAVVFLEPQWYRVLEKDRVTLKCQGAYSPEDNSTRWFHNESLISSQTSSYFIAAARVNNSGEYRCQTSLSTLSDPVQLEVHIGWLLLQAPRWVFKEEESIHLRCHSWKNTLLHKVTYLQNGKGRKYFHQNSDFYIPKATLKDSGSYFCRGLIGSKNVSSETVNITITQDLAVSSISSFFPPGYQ
T3 sequence (P08637 17-208 F176V): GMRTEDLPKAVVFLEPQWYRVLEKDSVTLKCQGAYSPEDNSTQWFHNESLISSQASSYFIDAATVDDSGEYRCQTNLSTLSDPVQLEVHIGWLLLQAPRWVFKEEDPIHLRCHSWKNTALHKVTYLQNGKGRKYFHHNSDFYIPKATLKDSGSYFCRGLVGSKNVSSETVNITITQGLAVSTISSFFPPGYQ
T4 sequence (P12314 16-288 limits assumed): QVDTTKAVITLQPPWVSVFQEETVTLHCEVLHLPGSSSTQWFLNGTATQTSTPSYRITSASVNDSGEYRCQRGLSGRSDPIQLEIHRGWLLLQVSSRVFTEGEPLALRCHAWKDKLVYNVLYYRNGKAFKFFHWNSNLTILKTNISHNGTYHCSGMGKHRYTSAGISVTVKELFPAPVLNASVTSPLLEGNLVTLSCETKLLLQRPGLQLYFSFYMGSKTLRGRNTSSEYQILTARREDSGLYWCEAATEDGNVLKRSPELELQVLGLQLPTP

B1: L234D/S267E (antibody, human IgG1, kappa)
heavy: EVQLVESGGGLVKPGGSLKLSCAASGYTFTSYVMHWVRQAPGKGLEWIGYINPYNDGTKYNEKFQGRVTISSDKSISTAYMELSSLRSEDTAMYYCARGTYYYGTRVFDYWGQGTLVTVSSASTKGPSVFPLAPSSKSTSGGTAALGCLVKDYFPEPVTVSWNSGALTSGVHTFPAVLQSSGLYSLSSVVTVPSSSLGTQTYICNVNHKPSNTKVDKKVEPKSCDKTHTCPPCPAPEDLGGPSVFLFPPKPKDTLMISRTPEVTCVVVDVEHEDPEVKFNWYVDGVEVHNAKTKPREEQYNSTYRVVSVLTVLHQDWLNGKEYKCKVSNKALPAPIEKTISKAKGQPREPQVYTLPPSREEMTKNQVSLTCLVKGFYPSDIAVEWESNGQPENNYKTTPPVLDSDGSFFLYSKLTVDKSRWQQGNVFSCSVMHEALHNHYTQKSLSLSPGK
light: DIVMTQSPATLSLSPGERATLSCRSSKSLQNVNGNTYLYWFQQKPGQSPQLLIYRMSNLNSGVPDRFSGSGSGTEFTLTISSLEPEDFAVYYCMQHLEYPITFGAGTKLEIKRTVAAPSVFIFPPSDEQLKSGTASVVCLLNNFYPREAKVQWKVDNALQSGNSQESVTEQDSKDSTYSLSSTLTLSKADYEKHKVYACEVTHQGLSSPVTKSFNRGEC
notes: HuAM4G7 anti-CD19 IgG1 (m1) with these Fc substitutions, EU index; copies: 2 + 2
Take B1: the “Fold vs WT IgG1” value amounted to 21.7 fold in experiment [1], 12.7 fold in [2], 0.14 fold in [3] and 0.0286 fold in [4]. The dissociation constant (Kd) came out at 67.8 nM in experiment [1], 67.7 nM in experiment [2], 1370 nM in [3] and 11.5 nM in experiment [4]. For the same molecule, the binding result in [5] was “no binding”. The “Fold vs WT IgG1 (off-rate)” value came to 0.116 fold in experiment [6], 0.495 fold in [7] and 1.04 fold in [8].

B2: L234G (antibody, human IgG1, kappa)
heavy: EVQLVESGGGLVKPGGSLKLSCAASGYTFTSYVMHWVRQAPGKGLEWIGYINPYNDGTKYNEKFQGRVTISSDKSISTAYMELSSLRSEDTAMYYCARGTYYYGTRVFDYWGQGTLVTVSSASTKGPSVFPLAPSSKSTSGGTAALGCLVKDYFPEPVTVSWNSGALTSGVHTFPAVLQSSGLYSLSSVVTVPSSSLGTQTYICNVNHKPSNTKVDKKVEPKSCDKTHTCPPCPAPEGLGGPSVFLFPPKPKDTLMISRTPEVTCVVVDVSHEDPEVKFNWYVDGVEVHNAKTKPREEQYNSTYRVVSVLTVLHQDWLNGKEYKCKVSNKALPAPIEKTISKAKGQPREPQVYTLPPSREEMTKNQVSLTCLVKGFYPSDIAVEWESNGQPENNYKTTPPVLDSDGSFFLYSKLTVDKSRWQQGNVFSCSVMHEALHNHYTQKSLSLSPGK
light: DIVMTQSPATLSLSPGERATLSCRSSKSLQNVNGNTYLYWFQQKPGQSPQLLIYRMSNLNSGVPDRFSGSGSGTEFTLTISSLEPEDFAVYYCMQHLEYPITFGAGTKLEIKRTVAAPSVFIFPPSDEQLKSGTASVVCLLNNFYPREAKVQWKVDNALQSGNSQESVTEQDSKDSTYSLSSTLTLSKADYEKHKVYACEVTHQGLSSPVTKSFNRGEC
notes: HuAM4G7 anti-CD19 IgG1 (m1) with this Fc substitution, EU index; copies: 2 + 2
Take B2: the “Fold vs WT IgG1” value in [1] turned out to be 0.147 fold; in experiment [2], 0.0859 fold. For the same molecule, the Kd in [1] and in [2] was 10000 nM in each case. Besides, the binding result in experiment [5], in [9] and in experiment [10] was “no binding” in each case. In addition, the “Fold vs WT IgG1 (off-rate)” value in experiment [6] was 0.113 fold.

B3: L234Q (antibody, human IgG1, kappa)
heavy: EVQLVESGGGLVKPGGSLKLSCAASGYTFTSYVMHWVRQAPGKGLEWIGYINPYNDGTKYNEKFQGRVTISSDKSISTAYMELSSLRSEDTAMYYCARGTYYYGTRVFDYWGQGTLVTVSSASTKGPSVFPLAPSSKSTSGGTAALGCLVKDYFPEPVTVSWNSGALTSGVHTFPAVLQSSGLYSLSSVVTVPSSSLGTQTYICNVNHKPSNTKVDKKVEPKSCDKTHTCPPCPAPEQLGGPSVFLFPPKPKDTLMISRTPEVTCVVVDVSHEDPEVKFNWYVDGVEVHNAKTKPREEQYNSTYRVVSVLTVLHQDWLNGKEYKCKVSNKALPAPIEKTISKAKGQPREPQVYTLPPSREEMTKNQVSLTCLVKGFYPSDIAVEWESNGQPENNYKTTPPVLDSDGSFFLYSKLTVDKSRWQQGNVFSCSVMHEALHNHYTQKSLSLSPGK
light: DIVMTQSPATLSLSPGERATLSCRSSKSLQNVNGNTYLYWFQQKPGQSPQLLIYRMSNLNSGVPDRFSGSGSGTEFTLTISSLEPEDFAVYYCMQHLEYPITFGAGTKLEIKRTVAAPSVFIFPPSDEQLKSGTASVVCLLNNFYPREAKVQWKVDNALQSGNSQESVTEQDSKDSTYSLSSTLTLSKADYEKHKVYACEVTHQGLSSPVTKSFNRGEC
notes: as for B2
Take B3: the “Fold vs WT IgG1” value was determined as 0.147 fold in experiment [1] and 0.0372 fold in experiment [2]. In addition, the Kd in experiment [1] amounted to 10000 nM; in [2] it was 23100 nM. Moreover, the binding result in experiment [5], in [9] and in [10] was “no binding” throughout. For the same molecule, the “Fold vs WT IgG1 (off-rate)” value in [6] came to 0.379 fold.

B4: S267E/L328H (antibody, human IgG1, kappa)
heavy: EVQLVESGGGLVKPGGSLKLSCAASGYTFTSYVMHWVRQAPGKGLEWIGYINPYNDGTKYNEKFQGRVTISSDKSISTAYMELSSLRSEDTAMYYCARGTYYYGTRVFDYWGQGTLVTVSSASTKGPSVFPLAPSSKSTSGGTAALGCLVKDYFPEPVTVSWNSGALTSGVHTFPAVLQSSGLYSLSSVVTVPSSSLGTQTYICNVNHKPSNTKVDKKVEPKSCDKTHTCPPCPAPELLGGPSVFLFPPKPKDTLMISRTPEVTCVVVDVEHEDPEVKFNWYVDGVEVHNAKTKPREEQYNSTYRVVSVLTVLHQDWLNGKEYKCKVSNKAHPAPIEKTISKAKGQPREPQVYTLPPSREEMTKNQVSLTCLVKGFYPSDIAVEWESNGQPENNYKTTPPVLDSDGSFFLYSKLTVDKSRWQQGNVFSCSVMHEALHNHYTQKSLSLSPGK
light: DIVMTQSPATLSLSPGERATLSCRSSKSLQNVNGNTYLYWFQQKPGQSPQLLIYRMSNLNSGVPDRFSGSGSGTEFTLTISSLEPEDFAVYYCMQHLEYPITFGAGTKLEIKRTVAAPSVFIFPPSDEQLKSGTASVVCLLNNFYPREAKVQWKVDNALQSGNSQESVTEQDSKDSTYSLSSTLTLSKADYEKHKVYACEVTHQGLSSPVTKSFNRGEC
notes: as for B1
Consider B4, for which the “Fold vs WT IgG1” value in experiment [1] came out at 5.17 fold; in experiment [2], 4.64 fold. Moreover, the Kd in experiment [1] is 284 nM; in experiment [2], 185 nM. The binding result in [11] and in [5] was “no binding” each time. Besides, the “Fold vs WT IgG1 (off-rate)” value in [7] was found to be 0.42 fold; in [8] it was 1.11 fold.

B5: G236E/S267E (antibody, human IgG1, kappa)
heavy: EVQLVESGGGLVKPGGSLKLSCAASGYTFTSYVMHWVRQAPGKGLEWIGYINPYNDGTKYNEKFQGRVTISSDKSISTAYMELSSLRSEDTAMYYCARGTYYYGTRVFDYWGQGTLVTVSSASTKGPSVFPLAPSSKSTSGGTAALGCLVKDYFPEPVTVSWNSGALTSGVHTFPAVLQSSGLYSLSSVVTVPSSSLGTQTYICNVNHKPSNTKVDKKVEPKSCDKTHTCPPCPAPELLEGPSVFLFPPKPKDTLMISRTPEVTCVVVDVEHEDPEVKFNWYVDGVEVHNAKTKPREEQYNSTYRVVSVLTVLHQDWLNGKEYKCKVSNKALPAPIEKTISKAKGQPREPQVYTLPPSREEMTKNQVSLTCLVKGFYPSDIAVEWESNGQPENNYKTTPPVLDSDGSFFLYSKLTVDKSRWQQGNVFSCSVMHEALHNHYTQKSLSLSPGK
light: DIVMTQSPATLSLSPGERATLSCRSSKSLQNVNGNTYLYWFQQKPGQSPQLLIYRMSNLNSGVPDRFSGSGSGTEFTLTISSLEPEDFAVYYCMQHLEYPITFGAGTKLEIKRTVAAPSVFIFPPSDEQLKSGTASVVCLLNNFYPREAKVQWKVDNALQSGNSQESVTEQDSKDSTYSLSSTLTLSKADYEKHKVYACEVTHQGLSSPVTKSFNRGEC
notes: as for B1
For the molecule B5, the “Fold vs WT IgG1” value in experiment [1] is 11.4 fold; in experiment [2] it was 36.5 fold. Besides, the Kd in [1] was determined as 129 nM; in [2], 23.5 nM. The binding result in experiment [5], in experiment [9] and in experiment [10] was “no binding” throughout. In addition, the “Fold vs WT IgG1 (off-rate)” value in experiment [6] was determined as 0.327 fold.

B6: S267E/N325L (antibody, human IgG1, kappa)
heavy: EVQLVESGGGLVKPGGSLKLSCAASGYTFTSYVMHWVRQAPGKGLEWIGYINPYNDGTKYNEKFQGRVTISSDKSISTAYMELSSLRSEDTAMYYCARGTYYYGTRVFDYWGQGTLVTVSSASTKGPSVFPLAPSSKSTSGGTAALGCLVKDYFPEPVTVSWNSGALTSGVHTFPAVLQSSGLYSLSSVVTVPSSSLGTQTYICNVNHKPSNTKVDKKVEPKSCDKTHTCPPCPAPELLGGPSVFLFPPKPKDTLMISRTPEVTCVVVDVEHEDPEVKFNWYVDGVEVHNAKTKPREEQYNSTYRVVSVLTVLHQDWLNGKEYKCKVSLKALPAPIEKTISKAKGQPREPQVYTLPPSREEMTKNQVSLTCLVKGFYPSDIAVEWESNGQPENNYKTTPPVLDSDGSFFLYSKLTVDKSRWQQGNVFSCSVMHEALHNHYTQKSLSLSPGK
light: DIVMTQSPATLSLSPGERATLSCRSSKSLQNVNGNTYLYWFQQKPGQSPQLLIYRMSNLNSGVPDRFSGSGSGTEFTLTISSLEPEDFAVYYCMQHLEYPITFGAGTKLEIKRTVAAPSVFIFPPSDEQLKSGTASVVCLLNNFYPREAKVQWKVDNALQSGNSQESVTEQDSKDSTYSLSSTLTLSKADYEKHKVYACEVTHQGLSSPVTKSFNRGEC
notes: as for B1
Regarding B6, the results for the “Fold vs WT IgG1” value in experiment [1] and in experiment [2] were 31.5 fold and 41.5 fold, respectively. The Kd turned out to be 46.6 nM in experiment [1] and 20.7 nM in experiment [2]. The binding result in experiment [11], in experiment [9] and in experiment [10] was “no binding” each time. In addition, the “Fold vs WT IgG1 (off-rate)” value in experiment [12] amounted to 0.24 fold.

B7: G236F (antibody, human IgG1, kappa)
heavy: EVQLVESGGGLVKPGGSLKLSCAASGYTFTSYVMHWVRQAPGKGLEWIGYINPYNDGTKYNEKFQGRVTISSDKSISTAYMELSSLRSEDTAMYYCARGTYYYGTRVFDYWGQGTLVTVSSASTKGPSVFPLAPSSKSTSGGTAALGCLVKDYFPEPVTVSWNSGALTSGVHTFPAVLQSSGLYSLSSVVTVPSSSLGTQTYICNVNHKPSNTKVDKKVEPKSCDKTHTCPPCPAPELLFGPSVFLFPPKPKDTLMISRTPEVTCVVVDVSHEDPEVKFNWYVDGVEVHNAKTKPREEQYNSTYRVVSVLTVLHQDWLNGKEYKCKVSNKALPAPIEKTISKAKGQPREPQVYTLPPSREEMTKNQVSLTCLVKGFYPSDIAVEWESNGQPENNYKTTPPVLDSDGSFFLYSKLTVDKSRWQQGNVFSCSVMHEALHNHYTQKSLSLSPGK
light: DIVMTQSPATLSLSPGERATLSCRSSKSLQNVNGNTYLYWFQQKPGQSPQLLIYRMSNLNSGVPDRFSGSGSGTEFTLTISSLEPEDFAVYYCMQHLEYPITFGAGTKLEIKRTVAAPSVFIFPPSDEQLKSGTASVVCLLNNFYPREAKVQWKVDNALQSGNSQESVTEQDSKDSTYSLSSTLTLSKADYEKHKVYACEVTHQGLSSPVTKSFNRGEC
notes: as for B2
As for B7, the figures for the “Fold vs WT IgG1” value in experiment [1] and in experiment [2] were 0.0147 fold and 0.00859 fold, respectively. Further, the Kd in experiment [1] and in [2] was 100000 nM in each case. The binding result in experiment [5], in experiment [9] and in [10] was “no binding” each time. Besides, the “Fold vs WT IgG1 (off-rate)” value in experiment [6] is 0.138 fold.

B8: L235R (antibody, human IgG1, kappa)
heavy: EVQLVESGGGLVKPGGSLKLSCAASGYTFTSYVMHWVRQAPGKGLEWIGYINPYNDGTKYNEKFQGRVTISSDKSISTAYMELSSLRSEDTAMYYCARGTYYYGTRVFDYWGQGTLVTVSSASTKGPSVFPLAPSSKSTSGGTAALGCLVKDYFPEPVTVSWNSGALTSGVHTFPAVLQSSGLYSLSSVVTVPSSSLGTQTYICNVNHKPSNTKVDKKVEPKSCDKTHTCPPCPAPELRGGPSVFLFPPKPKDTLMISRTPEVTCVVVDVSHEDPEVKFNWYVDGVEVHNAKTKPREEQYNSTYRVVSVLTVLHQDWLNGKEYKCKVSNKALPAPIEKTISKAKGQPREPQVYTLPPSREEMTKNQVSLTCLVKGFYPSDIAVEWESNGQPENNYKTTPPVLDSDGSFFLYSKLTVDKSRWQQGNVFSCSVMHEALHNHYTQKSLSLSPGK
light: DIVMTQSPATLSLSPGERATLSCRSSKSLQNVNGNTYLYWFQQKPGQSPQLLIYRMSNLNSGVPDRFSGSGSGTEFTLTISSLEPEDFAVYYCMQHLEYPITFGAGTKLEIKRTVAAPSVFIFPPSDEQLKSGTASVVCLLNNFYPREAKVQWKVDNALQSGNSQESVTEQDSKDSTYSLSSTLTLSKADYEKHKVYACEVTHQGLSSPVTKSFNRGEC
notes: as for B2
Take B8: the “Fold vs WT IgG1” value was 5.58 fold in [1] and 1.02 fold in [2]. Further, the Kd came to 263 nM in experiment [1] and 838 nM in experiment [2]. Also, the binding result in [11], in experiment [9] and in experiment [10] was “no binding” in each case. For the same molecule, in [12], the “Fold vs WT IgG1 (off-rate)” value stood at 0.347 fold.
